Experimental data taken from publication PMC10801921.
Changes are numbered by the printed parent chain.

Assays:
[1] = molecular target: T1, ARR1 DBD (crystal) (Arabidopsis thaliana, UniProt Q940D0 221-301); test: X-ray crystallography
T1 sequence: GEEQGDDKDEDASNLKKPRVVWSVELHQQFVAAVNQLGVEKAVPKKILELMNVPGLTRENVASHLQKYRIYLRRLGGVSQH

[2] = molecular target: T2, ARR1 RD-DBD R294A (Arabidopsis thaliana, UniProt Q940D0 1-301, R294A); test: BLI
T2 sequence: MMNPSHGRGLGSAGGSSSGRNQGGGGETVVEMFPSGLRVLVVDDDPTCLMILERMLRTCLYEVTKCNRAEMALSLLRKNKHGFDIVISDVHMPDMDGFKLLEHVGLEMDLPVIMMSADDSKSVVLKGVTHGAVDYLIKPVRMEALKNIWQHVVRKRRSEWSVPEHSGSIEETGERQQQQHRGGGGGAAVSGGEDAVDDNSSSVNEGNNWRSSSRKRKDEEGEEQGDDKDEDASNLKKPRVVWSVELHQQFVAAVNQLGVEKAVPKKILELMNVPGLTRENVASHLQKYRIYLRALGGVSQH

[3] = molecular target: T3, ARR1 RD-DBD D89E (Arabidopsis thaliana, UniProt Q940D0 1-301, D89E); test: BLI
T3 sequence: T2 sequence with D89E, A294R

B1: DNA-TCS 25 bp (crystal) (dsDNA)
DNA 1: AATCCAGATTAATCTAATCTAATCC
DNA 2: GGATTAGATTAGATTAATCTGGATT
B1: binds [1].

B2: DNA-TCS 40 bp (ARR6-40) (dsDNA)
DNA 1: GGATTAGATTAGATTAATCTGGATTAGATTAATCTAGATT
DNA 2: AATCTAGATTAATCTAATCCAGATTAATCTAATCTAATCC
B2: binds [2]; binds [3].
